Experimental data from the supplement of paper PMC7125110.
± gives the standard error. For some of these results: Fewer inactive variants are shown than the library holds.

B1: glmS ribozyme (parent)
chain: AUAAAAGCGCCAGAACUACAGAAAUGUAGUUGACGAGGAGGAGGUUUAUCGAAUUUUCGGCGGAUGCCUCCAAA

Tests used:
Details in all cases: with glucosamine-6-phosphate
glucosamine-6-phosphate [1] = variants of: B1; test: kcat; higher = faster cleavage; RNA array
Method in brief: (§1)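 A hybridised Cy3 probe tracked barcoded ribozyme variants, transcribed in situ by E. coli RNA polymerase on sequenced MiSeq chips, at 37 °C. The variants received 40 μM to 10 mM glucosamine-6-phosphate in HEPES/KCl/Mg(OAc)2 buffer. kobs came from decay fits and kcat and KM from weighted Michaelis–Menten fits.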

glucosamine-6-phosphate [2] = variants of: B1; test: KM; higher = weaker cofactor use; RNA array
Method in brief: as §1

glucosamine-6-phosphate [3] = variants of: B1; test: self-cleavage kobs at 40 uM GlcN6P; higher = faster cleavage; RNA array
Method in brief: as §1

glucosamine-6-phosphate [4] = variants of: B1; test: self-cleavage kobs at 160 uM GlcN6P; higher = faster cleavage; RNA array
Method in brief: as §1

glucosamine-6-phosphate [5] = variants of: B1; test: self-cleavage kobs at 640 uM GlcN6P; higher = faster cleavage; RNA array
Method in brief: as §1

glucosamine-6-phosphate [6] = variants of: B1; test: self-cleavage kobs at 2500 uM GlcN6P; higher = faster cleavage; RNA array
Method in brief: as §1

glucosamine-6-phosphate [7] = variants of: B1; test: self-cleavage kobs at 10000 uM GlcN6P; higher = faster cleavage; RNA array
Method in brief: as §1

Row | Variant | kcat (glucosamine-6-phosphate [1]) | KM (glucosamine-6-phosphate [2]) | self-cleavage kobs at 40 uM GlcN6P (glucosamine-6-phosphate [3]) | self-cleavage kobs at 160 uM GlcN6P (glucosamine-6-phosphate [4]) | self-cleavage kobs at 640 uM GlcN6P (glucosamine-6-phosphate [5]) | self-cleavage kobs at 2500 uM GlcN6P (glucosamine-6-phosphate [6]) | self-cleavage kobs at 10000 uM GlcN6P (glucosamine-6-phosphate [7])
1 | AUAAAAGCGCCAGAACUACAGAAAUGUAGUUGACGAGGAGGAGGUCUAUCGAGUUUUCGGCGGAUGCCUCCAAA [U46C A53G] | 0.00366 ± 0.0005 s⁻¹ | 1430 ± 280 µM | 8.69e-05 ± 1.5e-05 s⁻¹ | 0.000402 ± 6.7e-05 s⁻¹ | 0.00119 ± 0.00015 s⁻¹ | 0.0025 ± 0.00035 s⁻¹ | 0.00272 ± 0.00067 s⁻¹
2 | AUAAAAGCGCCAGAACUACAGAAAUGUAGUUGACGAGGAGGAGGUAUAUCGAAUGUUCGGCGGAUGCCUCCAAA [U46A U55G] | 0.0019 ± 0.00044 s⁻¹ | 1350 ± 440 µM | 5.8e-05 ± 7.5e-06 s⁻¹ | 0.000169 ± 2.3e-05 s⁻¹ | 0.000893 ± 0.00011 s⁻¹ | 0.001 ± 0.00022 s⁻¹ | 0.00169 ± 0.00022 s⁻¹
3 | AUAAAAGCGCCAGAACUACAGAAAUGUAGUUGACGAGGAGGAGGUACAUCGAAUUUUCGGCGGAUGCCUCCAAA [U46A U47C] | 0.00192 ± 0.00044 s⁻¹ | 2240 ± 840 µM | 5.61e-05 ± 1.2e-05 s⁻¹ | 0.000141 ± 2.8e-05 s⁻¹ | 0.00034 ± 5.6e-05 s⁻¹ | 0.00121 ± 0.00021 s⁻¹ | 0.00157 ± 0.00019 s⁻¹
4 | AUAAAAGCGCCAGAACUACAGAAAUGUAGUUGACGAGGAGGAGGUAAAUCGAAUUUUCGGCGGAUGCCUCCAAA [U46A U47A] | 0.00774 ± 0.0022 s⁻¹ | 2510 ± 920 µM | 0.000207 ± 4.9e-05 s⁻¹ | 0.000426 ± 6.1e-05 s⁻¹ | 0.00159 ± 0.00033 s⁻¹ | 0.00385 ± 0.00067 s⁻¹ | 0.00631 ± 0.0017 s⁻¹
5 | AUAAAAGCGCCAGAACUACAGAAAUGUAGUUGACGAGGAGGAGGUCUAUCGAAUUUUCGGCGGAUGCCUCCAAA [U46C] | 0.00387 ± 0.00034 s⁻¹ | 1410 ± 170 µM | 0.000108 ± 2.5e-06 s⁻¹ | 0.000364 ± 1.3e-05 s⁻¹ | 0.00126 ± 3.5e-05 s⁻¹ | 0.00342 ± 0.00018 s⁻¹ | 0.00329 ± 7.7e-05 s⁻¹
6 | AUAAAAGCGCCAGAACUACAGAAAUGUAGUUGACGAGGAGGAGGUCUAUCGUAUUUUCGGCGGAUGCCUCCAAA [U46C A52U] | 0.0006 ± 0.00022 s⁻¹ |  | < 1e-05 s⁻¹ |  | 3.24e-05 ± 1.6e-05 s⁻¹ | 6.32e-05 ± 1.1e-05 s⁻¹ | 0.000199 ± 2.3e-05 s⁻¹
